The numbers were not newly measured in article PMC2948943, which cites them from elsewhere.

The data set concerns the target UmuD (Escherichia coli) (UniProt P0AG11).

Chain of UmuD (P0AG11 25-139): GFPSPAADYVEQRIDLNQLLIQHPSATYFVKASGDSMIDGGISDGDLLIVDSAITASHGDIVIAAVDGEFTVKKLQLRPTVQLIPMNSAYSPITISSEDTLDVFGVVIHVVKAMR

By Kd is commonly meant the equilibrium constant for the complex coming apart. Regarding UmuD (from UniProt P0AG11), the Kd was under 0.01 nM.
